This note sets out measurements from article PMC8423902 (Cell Reports, 2021).

This experiment addresses trimeric SARS-CoV-2 ectodomain (S 6P trimer, residues 16-1206) (SARS-CoV-2, early isolate GenBank …, UniProt P0DTC2, stabilised). Put plainly: cryo-EM structure.

B1: C118 Fab (Fab, V domains shown)
VH: QVQLVESGGGVVQPGRSLRLSCAASGFTFSNYAMHWVRQAPGKGLEWVAVISYDGSNKYYADSVKGRFTISRDNSKNTLYLQMNSLRAEDTAIYYCASGYTGYDYFVRGDYYGLDVWGQGTTVTVSS
VL: QPVLTQSPSASASLGASVKLTCTLSSGHSSYAIAWHQQQPEKGPRYLMKLNTDGSHSKGDGIPDRFSGSSSGAERYLTISSLQSEDEADYYCQTWGTGILVFGGGTKLTVL
For B1, the binding result is on record as “binds”.
